Reference: PMC11661108 (bioRxiv, 2024)
Values joined by “and” are separate entries in the source; they are usually repeats but may differ in a detail not shown here. Equal entries are not always repeated.

Tests used:
Assay in all cases: BLI
RBD of SARS-CoV-2 BA.1 = RBD of SARS-CoV-2 BA.1 (SARS-CoV-2 Omicron BA.1, strain, biotin (Avi tag))
RBD of SARS-CoV-2 EG.5.1 = RBD of SARS-CoV-2 EG.5.1 (SARS-CoV-2 Omicron EG.5.1, strain, biotin (Avi tag))
RBD of SARS-CoV-2 HV.1 = RBD of SARS-CoV-2 HV.1 (SARS-CoV-2 Omicron HV.1, strain, biotin (Avi tag))

B1: Fab-52 (Fab, V domains shown)
VH: EVQLVQSGGDLAPPGGSLRLSCEASGIIVSSNYMTWVRQAPGKGLEWVSLIFAGGSTFYADSVKGRFTVSRDNSKNTLYLQMSSLKPEDTAVYFCARDLREMGGLDFWGQGALVTVSS
VL: DIQMTQSPSSVSASIGDTVTITCRASQGIPSWVAWYQQKPGKAPKLLIYGASNLQRGVPSRFSGSGSGTDFTLTISSLQPEDLAVYYCHQSDSLPGIFGGGTKVEIK
How did the Kd (RBD of SARS-CoV-2 BA.1) turn out when B1 was run?
The Kd was 1.1 nM.

What about the Kd (RBD of SARS-CoV-2 EG.5.1) of the same binder?
The Kd was 10 nM and 7 nM.

What about the Kd (RBD of SARS-CoV-2 HV.1) of the same binder?
The Kd was 12.2 nM and 9.1 nM.
